In PMC11731451, “Phosphorylation of Lamin A/C regulates the structural integrity of the nuclear envelope” (The Journal of Biological Chemistry, 2024):

Target: T1, GST-tagged Lamin A-C178 (250-428 aa), wild type (UniProt P02545 250-428)
T1 construct: Lamin A, fragment C178, residues 250-428; also called Lamin-A-C178-WT
T1 sequence (looked up): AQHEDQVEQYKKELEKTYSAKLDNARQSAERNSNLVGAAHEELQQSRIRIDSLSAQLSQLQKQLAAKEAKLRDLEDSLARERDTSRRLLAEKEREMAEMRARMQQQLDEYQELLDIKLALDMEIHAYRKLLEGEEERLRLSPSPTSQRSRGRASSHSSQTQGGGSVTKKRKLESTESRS
Experiment: pull-down; 10 ug GST-tagged protein on glutathione agarose beads incubated with 10 ug soluble recombinant protein; PBS with 0.1% Triton X-100, 4 C, 4 h; three washes; SDS-PAGE with Coomassie staining; salt concentration also varied (Fig. S4B)
Settings: both partners purified

B1: His-tagged Lamin A-N125 (1-125 aa), wild type (domain or fragment, UniProt P02545 1-125, looked up)
chain: METPSQRRATRSGAQASSTPLSPTRITRLQEKEDLQELNDRLAVYIDRVRSLETENAGLRLRITESEEVVSREVSGIKAAYEAELGDARKTLDSVAKERARLQLELSKVREEFKELKARNTKKEG
notes: The cell work is in human HeLa cells; also called Lamin A-N125-WT; source: E. coli BL21, purified (Ni-NTA agarose, dialysed)
binding result: binds
